{"source": "paper PMC3855536", "proteins": {"B1": {"name": "MqnA (TTHA0803) (Thermus thermophilus HB8) (protein)", "chain": "MRPYVLGLPRYANVAPLHHFLRLEGFRVLHAVPAELNRLLLSGEVGLSLVSSYFYLKHQDSLGLLPDFSVAVLGRVYSVNLFHKGALPHLARVALTTESATSVALLKLLLKEAGAGPRYERREGGLELLSAYDGVLLIGDRAIKAYAALLPEVPETPHALPTRFGEVEVADLSTLWFQRTHLPFVFAVWAYRRENPPPKALVQALREARREGLGRLREVAEAEARRLGVHPLLLQHYLWNFRYHLEEPDRLGLKAFAEALGLPFAPMFYPE"}}, "substrate": "C=C(O[C@@H]1C=C(C(=O)O)C=C[C@H]1O)C(=O)O", "assay": "steady-state kinetics", "assay_type": "biochemical, Thermus thermophilus", "conditions": "dehydration of chorismate to 12"}
{"protein": "B1", "values": [{"measurement": "Km", "result": "161.6 ± 7.1", "unit": "µM"}, {"measurement": "kcat", "result": "1.27 ± .02 s⁻¹"}]}
